Test results taken from US9994628B2, “Peptides and combination of peptides for use in immunotherapy against various tumors” (IMMATICS BIOTECHNOLOGIES GMBH, priority 2015, dated 2018).

How the values were obtained:
CD8+ T cells = test: In vitro T-cell priming assay with aAPCs loaded with peptide/MHC complexes and anti-CD28 antibody, pMHC multimer readout; format: cell-based, human; conditions: for Wells positive [%]: percentage of positive wells among evaluable, HLA-A*02 restricted peptides; for donors (in vitro immunogenicity): positive donors; for donors (in vitro immunogenicity) / wells (in vitro immunogenicity): healthy HLA-A*02 donors, three stimulation cycles; for wells (in vitro immunogenicity): positive wells
Description: In order to obtain information regarding the immunogenicity of the TUMAPs of the present invention, the inventors performed investigations using an in vitro T-cell priming assay based on repeated stimulations of CD8+ T cells with artificial antigen presenting cells (aAPCs) loaded with peptide/MHC complexes and anti-CD28 antibody.
In order to perform in vitro stimulations by artificial antigen presenting cells loaded with peptide-MHC complex (pMHC) and anti-CD28 antibody, the inventors first isolated CD8+ T cells from fresh HLA-A*02 leukapheresis products via positive selection using CD8 microbeads (Miltenyi Biotec, Bergisch-Gladbach, Germany) of healthy donors obtained from the University clinics Mannheim, Germany, after informed consent. PBMCs and isolated CD8+ lymphocytes were incubated in T-cell medium (TCM) until use consisting of RPMI-Glutamax (Invitrogen, Karlsruhe, Germany) supplemented with 10% heat inactivated human AB serum (PAN-Biotech, Aidenbach, Germany), 100 U/ml Penicillin/100 μg/ml Streptomycin (Cambrex, Cologne, Germany), 1 mM sodium pyruvate (CC Pro, Oberdorla, Germany), 20 μg/ml Gentamycin (Cambrex). 2.5 ng/ml IL-7 (PromoCell, Heidelberg, Germany) and 10 U/ml IL-2 (Novartis Pharma, Nümberg, Germany) were also added to the TCM at this step. Generation of pMHC/anti-CD28 coated beads, T-cell stimulations and readout was performed in a highly defined in vitro system using four different pMHC molecules per stimulation condition and 8 different pMHC molecules per readout condition.
The purified co-stimulatory mouse IgG2a anti human CD28 Ab 9.3 (Jung et al., 1987) was chemically biotinylated using Sulfo-N-hydroxysuccinimidobiotin as recommended by the manufacturer (Perbio, Bonn, Germany). Beads used were 5.6 μm diameter streptavidin coated polystyrene particles (Bangs Laboratories, Illinois, USA).
pMHC used for positive and negative control stimulations were A*0201/MLA-001 (peptide […] (SEQ ID NO. 289) from modified Melan-A/MART-1) and A*0201/DDX5-001 ([…] from DDX5, SEQ ID NO. 290), respectively.
800.000 beads/200 μl were coated in 96-well plates in the presence of 4×12.5 ng different biotin-pMHC, washed and 600 ng biotin anti-CD28 were added subsequently in a volume of 200 μl. Stimulations were initiated in 96-well plates by co-incubating […] CD8+ T cells with 2×10^5 washed coated beads in 200 μl TCM supplemented with 5 ng/ml IL-12 (PromoCell) for 3 days at 37° C. Half of the medium was then exchanged by fresh TCM supplemented with 80 U/ml IL-2 and incubating was continued for 4 days at 37° C. This stimulation cycle was performed for a total of three times. For the pMHC multimer readout using 8 different pMHC molecules per condition, a two-dimensional combinatorial coding approach was used as previously described (Andersen et al., 2012) with minor modifications encompassing coupling to 5 different fluorochromes. Finally, multimeric analyses were performed by staining the cells with Live/dead near IR dye (Invitrogen, Karlsruhe, Germany), CD8-FITC antibody clone SK1 (BD, Heidelberg, Germany) and fluorescent pMHC multimers. For analysis, a BD LSRII SORP cytometer equipped with appropriate lasers and filters was used. Peptide specific cells were calculated as percentage of total CD8+ cells. Evaluation of multimeric analysis was done using the FlowJo software (Tree Star, Oregon, USA). In vitro priming of specific multimer+ CD8+ lymphocytes was detected by comparing to negative control stimulations.

HLA-A*02:01 = HLA-A*02:01 (Homo sapiens, UniProt P04439, D140Y/D185E/D98H/E176V/E277Q/G131W/G231S/I119V/I121R/I166T/I218V/L300P/L318F/N151K/N90K/P208A/P217A/Q86G/Q94H/R138H/R169H/T345S); test: MHC binding assay: UV-ligand exchange and β2m ELISA (peptide exchange yield, Table 7); conditions: binding of HLA-class I restricted peptides to HLA-A*02:01, UV-ligand exchange
Summary of the method: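 Peptide-MHC complexes made by UV-mediated exchange of a cleavable ligand for test peptide; exchange yield measured by ELISA detecting β2m of stabilized complexes captured on streptavidin, using refolded HLA-A*02:01/MLA-001 monomer standards (15-500 ng/ml). Samples diluted 100-fold; HRP anti-β2m, TMB, absorbance 450 nm.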

Substance | Peptide exchange (MHC class I binding score, peptide exchange yield) (HLA-A*02:01) | further results
34 (TLNTLDINL; listed as Homo sapiens) [compound 34] | +++ (≥50% = +++) | Wells positive [%] (CD8+ T cells): ++++ (>=70% = ++++)
39 (YLEDGFAYV; listed as Homo sapiens) [compound 39] | +++ (≥50% = +++) | Wells positive [%] (CD8+ T cells): ++++ (>=70% = ++++)
273 (SLNKQIETV; listed as Homo sapiens) [compound 273] | ++ (≥20% = ++) | –
274 (TLYNPERTITV; listed as Homo sapiens) [compound 274] | +++ (≥50% = +++) | –
275 (AVPPPPSSV; listed as Homo sapiens) [compound 275] | ++ (≥20% = ++) | –
276 (RMPTVLQCV; listed as Homo sapiens) [compound 276] | +++ (≥50% = +++) | –
277 (KLQEELNKV; listed as Homo sapiens) [compound 277] | +++ (≥50% = +++) | –
278 (VLEDKVLSV; listed as Homo sapiens) [compound 278] | +++ (≥50% = +++) | –
279 (VLMDEGAVLTL; listed as Homo sapiens) [compound 279] | ++ (≥20% = ++) | –
280 (HLWGHALFL; listed as Homo sapiens) [compound 280] | +++ (≥50% = +++) | –
281 (LLLESDPKVYSL; listed as Homo sapiens) [compound 281] | ++ (≥20% = ++) | –
282 (SLYALHVKA; listed as Homo sapiens) [compound 282] | ++ (≥20% = ++) | –
283 (ALSELLQQV; listed as Homo sapiens) [compound 283] | +++ (≥50% = +++) | –
284 (KLMDPGSLPPL; listed as Homo sapiens) [compound 284] | ++ (≥20% = ++) | –
285 (MLLDTVQKV; listed as Homo sapiens) [compound 285] | +++ (≥50% = +++) | –
286 (FLTEMVHFI; listed as Homo sapiens) [compound 286] | +++ (≥50% = +++) | –
287 (KIQEILTQV; listed as Homo sapiens) [compound 287] | – | donors (in vitro immunogenicity) (CD8+ T cells): +++ (50%-69% = +++); wells (in vitro immunogenicity) (CD8+ T cells): + (<20% = +)
288 (SLYKGLLSV; listed as Homo sapiens) [compound 288] | – | donors (in vitro immunogenicity) (CD8+ T cells): ++++ (>=70% = ++++); wells (in vitro immunogenicity) (CD8+ T cells): ++ (21%-49% = ++)
